Here are results for two sequences from article PMC4509764.

Data set [1] deals with T1, NanR (Clostridium perfringens strain 13) (UniProt P26833).
T1 sequence: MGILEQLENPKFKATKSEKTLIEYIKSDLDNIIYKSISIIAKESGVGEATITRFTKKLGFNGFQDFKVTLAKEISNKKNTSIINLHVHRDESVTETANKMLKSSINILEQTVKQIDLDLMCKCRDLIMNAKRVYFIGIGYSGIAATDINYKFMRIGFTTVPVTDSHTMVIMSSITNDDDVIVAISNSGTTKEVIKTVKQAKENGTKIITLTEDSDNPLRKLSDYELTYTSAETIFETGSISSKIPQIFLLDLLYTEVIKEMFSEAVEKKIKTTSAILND
The data set can be described thus: competition. The settings on record: 20 mM HEPES pH 7.6, 1 mM EDTA, 10 mM ([…], room temperature 20 min.

The target of data set [2] is T1, NanR (Clostridium perfringens strain 13). Kind of data set: EMSA. The settings on record: 20 mM HEPES pH 7.6, 1 mM EDTA, 10 mM ([…], room temperature 20 min. A general note: Mobility shift assays separate free from complexed probe on a gel.

In the case of “ATATTTTGATACATGCTCTTTTTTTATGAAATAAATTTTCAAAAACAAAAATTATAGGAATAAAAGTGAAAAAAATATGAATAAAAATGGCTTGAAACATAGGTTGTAGGCATATTTGGAAAAACTAAGAACCATAAAATAGAAAAATATTTTCAAAAAGTATTGAAATTCTGTGGGAAAAGGATTACAATAAAAACATAAAGAAAATAATTTTCAGAAAAAAGGTGATAAAATG (double strand) [nanE promoter probe]”, the binding result in data set [1] and in data set [2] was “binds” throughout.

As for “CTTTCAATAATTACCCCTCCTAATTTATTTCATTAGTATTTATTATATGGTTCTTAACTTAATTATAACTTATTTCTAGGGAAAGTTATTATTAATTAGTAGATAAATATAAAATTTGCGTAGTATAAACTGTATTTTATACAATTTTAGTAATATTAAAGCTTATTTAAACGTATACATAATATAAGGTC (double strand) [nanJ promoter probe]”, the binding entry in data set [2] is given as “binds more weakly”.
